Assay: Pharmacokinetic study of intranasal tissue kallikrein (125I-KLK1 tissue concentrations by gamma counting)
Format: in vivo
Details: rat
Procedure: The purpose of this study was to quantify the amount of tissue kallikrein (KLK1) reaching the central nervous system and peripheral tissues after intranasal administration to anesthetized rats. At 30 min after KLK1 administration, animals were transcardially perfused with ice-cold saline followed by paraformaldehyde fixative and tissues were dissected. The amount of radiolabeled KLK1 in each tissue sample was quantified by gamma counting and tissue concentrations were calculated using tissue weight and gamma counting of standards of the dosing solutions
Adult male Sprague Dawley rats (n=10, mean 335.4 g±4.57 g SE) were used for this study. Animals were group housed in the Regions Hospital Animal Care Facility with free access to food and water. Animals were kept on a 12 h light cycle. All experimental procedures were approved by the Animal Care and Use Committee at Regions Hospital under IACUC protocol number 08-022.
Tissue kallikrein was sent to Perkin-Elmer for ^125I-labelling (Quote NEX-084, lot C1541583). Non-labeled KLK1 from Sigma (cat#K3627-1KU, lot 018K1441) was also used. Non-labeled KLK1 was dissolved in 1×PBS (10×PBS, Sigma, cat #P5493, lot 027K8405 diluted in sterile water). The average dose was 48.1 μL, 75 μCi, and 2.6 mg.
• a. Prior to anesthesia, each rat was weighed. • b. An anesthesia cocktail was prepared and full, half, and quarter anesthesia doses were calculated according to the animal's weight with a full dose containing 30 mg/kg ketamine, 6 mg/kg xylazine, and 1 mg/kg acepromazine. • c. A 1-cc syringe fitted with a 25 G or 27 G, ½ inch needle was assembled and a full dose was drawn into the syringe for injection. • d. Rats were restrained in a towel as follows. Rats were placed ventral side down in the middle of a hand towel. The towel was then wrapped around the head and shoulders to restrain. Wrapped animals remained ventral side down while the left hind leg was located. • e. The left hind leg was drawn to the side and the needle was inserted just beneath the skin (subcutaneous) above the thigh. After ensuring that the needle was placed subcutaneously (and not intramuscularly), full doses were injected. Rats were placed in holding cages and the injection time noted. Animals should be under within 5 min. • f. Anesthesia was monitored throughout the procedures by assessing reflexes using pinching of the hind paw or tail. If a reflex was present, a half or quarter dose booster was administered as necessary. • g. During drug administration, animals received a half dose booster roughly 20-25 min after initial dose. Intranasal Delivery of ^125I-KLK1 • a. Anesthetized rats were placed on their backs on a heating pad in a metal surgical tray. The heating pad was connected to a thermostat and was automatically regulated to maintain a 37° C. temperature based on continuous measurement from a rectal probe. • b. A 2″×2″ gauze pad was rolled tightly into a pillow, taped together, and under the neck to maintain a correct neck position horizontal with the counter. • c. A lead impregnated shield was placed between the surgical tray and the experimenter for protection against radiation. The dose solution, pipette, pipette tips, and waste receptacle were arranged behind the shield for easy access. • d. A 6 μL drop was loaded into the pipette behind the shield. • e. A cotton swab covered in parafilm was used to occlude one naris completely (the flat part of the swab was pushed gently against the naris to prevent airflow), while the 6 μL drop was expelled slowly from the pipette (held at a 45° angle from the rat's midline), forming a drop on the pipette tip. The drop was lowered onto the open naris to be inhaled. • f. After two minutes, the alternate naris was occluded and a 6 μL drop was administered in the same fashion. • g. A drop was administered as described above every two minutes to alternating nares until a total of 8 drops was delivered (4 to each naris) over 14 min. • h. […]

[1] = 30 min. end point, Avg, outliers removed

B1: tissue kallikrein: serine protease that cleaves kininogen into kallidin; polypeptide SEQ ID NO:1 (Sus scrofa kallikrein 1), KLK1 from Sigma (protein, listed as Sus scrofa)
chain: MWSLVMRLALSLAGTGAAPPIQSRIIGGRECEKDSHPWQVAIYHYSSFQCGGVLVDPKWVLTAAHCKNDNYQVWLGRHNLFENEVTAQFFGVTADFPHPGFNLSLLKNHTKADGKDYSHDLMLLRLQSPAKITDAVKVLELPTQEPELGSTCQASGWGSIEPGPDDFEFPDEIQCVELTLLQNTFCADAHPDKVTESMLCAGYLPGGKDTCMGDSGGPLICNGMWQGITSWGHTPCGSANKPSIYTKLIFYLDWINDTITENP
modifications: 125I label in one form
For B1, the “reaching target regions (frontal cortex, temporal cortex, hippocampus, cerebral blood vessel walls, cervical nodes)” value (30 min) was “effectively reached target regions”, the “concentration in Amygdala” value [1] was 16.2 nM and the “concentration in Anterior Olfactory Nucleus” value [1] was 26.8 nM. For the same molecule, the “concentration in Anterior Trigeminal Nerve” value [1] was 109.1 nM, the “concentration in Axillary Nodes (2)” value [1] was 42.3 nM and the “concentration in Blood Sample” value [1] was 268.4 nM. The “concentration in Carotid Artery” value [1] was 113.4 nM, the “concentration in Cerebellum” value [1] was 10.9 nM and the “concentration in Cervical Nodes (2)” value [1] was 122.3 nM. For the same molecule, the “concentration in Circle of Willis & Basilar Artery” value [1] was 103.3 nM, the “concentration in Dorsal Dura” value [1] was 132.9 nM and the “concentration in Esophagus” value [1] was 85.2 nM. For the same molecule, the “concentration in Extra Cortex” value [1] was 13.0 nM, the “concentration in Extra Slice #1” value [1] was 23.6 nM and the “concentration in Extra Slice #2” value [1] was 16.7 nM. For the same molecule, the “concentration in Extra Slice #3” value [1] was 13.9 nM, the “concentration in Extra Slice #4” value [1] was 12.0 nM and the “concentration in Extra Slice #5” value [1] was 11.8 nM. The “concentration in Extra Slice #6” value [1] was 11.3 nM, the “concentration in Frontal Cortex” value [1] was 23.9 nM and the “concentration in Heart” value [1] was 22.6 nM. The “concentration in Hippocampus” value [1] was 10.7 nM, the “concentration in Hypothalamus” value [1] was 22.2 nM and the “concentration in Kidney (L, tip)” value [1] was 134.8 nM. The “concentration in Liver (R, superficial lobe)” value [1] was 25.7 nM, the “concentration in Lower Cervical Spinal Cord” value [1] was 7.1 nM and the “concentration in Lumbar Spinal Cord” value [1] was 4.9 nM. The “concentration in Lung (R, top lobe)” value [1] was 37.2 nM, the “concentration in Medulla” value [1] was 14.9 nM and the “concentration in Midbrain” value [1] was 12.5 nM. The “concentration in Muscle (R, deltoid)” value [1] was 21.4 nM, the “concentration in Occipital Cortex” value [1] was 12.8 nM and the “concentration in Olfactory Bulbs” value [1] was 107.1 nM. The “concentration in Olfactory Epithelium” value [1] was 24,762.6 nM, the “concentration in Optic Chiasm” value [1] was 29.4 nM and the “concentration in Parietal Cortex” value [1] was 12.1 nM. The “concentration in Pituitary” value [1] was 60.1 nM, the “concentration in Pons” value [1] was 14.4 nM and the “concentration in Posterior Trigeminal Nerve” value [1] was 51.8 nM. For the same molecule, the “concentration in Renal artery (L)” value [1] was 58.1 nM, the “concentration in Respiratory Epithelium” value [1] was 75,970.0 nM and the “concentration in Septal Nucleus” value [1] was 12.1 nM. The “concentration in Spinal Dura” value [1] was 26.6 nM, the “concentration in Spleen (tip)” value [1] was 72.6 nM and the “concentration in Striatum” value [1] was 9.8 nM. For the same molecule, the “concentration in Superficial Nodes (2)” value [1] was 63.1 nM, the “concentration in Temporal Cortex” value [1] was 12.4 nM and the “concentration in Thalamus” value [1] was 10.3 nM. The “concentration in Thoracic Spinal Cord” value [1] was 5.2 nM, the “concentration in Thyroid” value [1] was 1970.6 nM and the “concentration in Trachea” value [1] was 77.7 nM. The “concentration in Upper Cervical Spinal Cord” value [1] was 23.4 nM and the “concentration in Urine” value [1] was 130.7 nM.

Reference: patent US8501695B2, “Tissue kallikrein for the treatment of diseases associated with amyloid protein” (DiaMedica, Inc., priority 2007, dated 2013)
